In the DeepSol protein solubility set:

Assay: soluble on expression in E. coli; label from the status in PepcDB or PDB records

Sequence	soluble on expression in E. coli
MHLNNLNNFNNLENNGEYHCSGPIIKKPFRHIALTVPSSDITNFNEIFYVEPQYIAQAIRLTNTFQGAIDPLTLNFNFEKALQIANGLPNAGVTGTINQSVIHQTIEVSVMISQIKEIIRSVLGLVINSANFWNSVVSAITNTFTNLEPQVDENWIVWRNLSATQTSYFYKILFSIQNEDTGRFMAILPIAFEITVDVQKQQLLFITIKDSARYEVKMKALTVVQALDSYNAPIIDVFNVRNYSLHRPNHNILQNLNVNPIKS	soluble
MQAINPNWNVPKNIHAFTTTREGGVSLAPYLSFNLGDHVGDNKSAVKTNRTLLVEKFGLPQTPIFLTQTHSTRVIQLPYSGQNLEADAVYTNVPNQVCVVMTADCLPVLFTTTSGNEVAATHAGWRGLCDGVLEETVKYFQAKPEDIIAWFGPAIGPKAFQVGIDVVEKFVVVDEKAKLAFQPDAIEEGKYLSNLYQIATQRLNNLGITQIYGGNHCTFNEKEKFFSYRRDNQTGRMASVIWFE	not soluble
MAAQQRDCGGAAQLAGPAAEADPLGRFTCPVCLEVYEKPVQVPCGHVFCSACLQECLKPKKPVCGVCRSALAPGVRAVELERQIESTETSCHGCRKNFFLSKIRSHVATCSKYQNYIMEGVKATIKDASLQPRNVPNRYTFPCPYCPEKNFDQEGLVEHCKLFHSTDTKSVVCPICASMPWGDPNYRSANFREHIQRRHRFSYDTFVDYDVDEEDMMNQVLQRSIIDQ	soluble
MGSDKIHHHHHHMDFHTGKWLCKQYNLNSFTKVSLLHGGENQTYMFESDKNKFVVRQYREGRYTAEQIEAEIHWLIAIQKQMLVPEVVVNKDGDWVTPVMKDEGSIQYFVVFRFINGNEIIEPKDKDYEKLGSFMRMFHEKTNGVLKSVPQTWRGYERPIYSEKKMIHEPLQCLLNTSFLSYEDKNKCLRIAERIQELTNSIQLREKQFVHGDMHFGNILVDKEDWYLLDFDECGFGYKEFDIGVPRLHLIASGQLEDAWGNFMMGYGENISESAIRLGAASRIFYMAGKIPLRLDIEPIKKNPDHFIRRYIQYAEEELCGETIV	not soluble
MSLRPSLDAWTKMECVMVKIKTSDGLEGWGEAFGHVMAPGTEAVINQILAPMLVGKDSVAINHRVAEMERPLHGLGRSGPVMYGLSAIDTALWDLAAQRANLPLFKFLGGDSGVLTKYASLMRYGGDTDAVAQNVERARSYGFRTIKLHETTIPAFRAARNAVDFDDKICLDVNCPWTVSEARDVAQEILEDGFHWLEEPIWPPEDFEGLAEVRLEGVPISAGENITTLHEFKLALETEAVDNLQPSVTKCGGVSMMRKIFSLSEVYPVTVIPHCFYWGPGYHATAHLAASCLNSTPLETAFITFAVEPHNLFNSHSDKVTLDDTPGLGFNANWEALDQFIISTNEVTEGHHHHHH	soluble
MGSDKIHHHHHHMLGLIKKKANTLLGIDISSTSVKLLELSRSGGRYKVEAYAVEPLPPNAVVEKNIVELEGVGQALSRVLVKAKTNLKSAVVAVAGSAVITKTIEMEAGLSEDELENQLKIEADQYIPYPLEEVAIDFEVQGLSARNPERVDVLLAACRKENVEVREAALALAGLTAKVVDVEAYALERSYALLSSQLGADTDQLTVAVVDIGATMTTLSVLHNGRTIYTREQLFGGRQLTEEIQRRYGLSVEEAGLAKKQGGLPDDYDSEVLRPFKDAVVQQVSRSLQFFFAAGQFNDVDYIVLAGGTASIQDLDRLIQQKIGTPTLVANPFADMALNGKVNAGALASDAPALMIACGLALRSFD	not soluble
MALAQQLRSESDFEQLPDDVAVSANIADIEEKRGFTSHFVFVIEVKTKGGSKYLIYRRYRQFYALQSKLEERFGPESKNSPFTCSLPTLPAKVYMGAKQEIAETRIPALNAYMKNLLSLPVCVLMDPDVRIFFYQSAYDAEQVPQALRRLRPRTRKIKGVSPQGAIMDRMEAPRAEALFDFTGNSKLELSFKAGDVIFLLSKINKDWLEGTSQGATGIFPGSFVKILKDFPEDEDTTNWLRCYFYEDTGKTIKDIAVEEDLSSTPLFKDLLALMRREFQREDIALSYQDAEGDLVRLLSDEDVGLMVKQARGLPSQKRLFPWKLHVTQKDNYSVYNTVP	soluble
MSSGYSSLEEDEDFFFTARTSFFRRAPPGKSRSGQPDVEKEKETHNYLSKEEIKEKVHKYNSAVTDKLKMTLNSNGIYTGFIKVQMELCKPAQPSPEPSSGGCMNTLHISSTNTVGEVIEALLRKFLVTESPTKFALYKRCHREDQVYACKLSDREHPLYLRLVAGPRTDTLSFVLREHEIGEWEAFSLPELQNFLRILDKEEDEQLQSLKRRYTAYRQKLEEALGEVWKPG	not soluble
MSLKLHHLNDSRSFRILWLLEEIGQPYEIIRYQRDKETHLAPETLKDIHPLGKSPVIELDGKIIAESGSITEVLIKEFAPHLAPNEKSPEYIDYLQWIHFSESSAMLPLLLKIFNEFETRSGTDLKFLKNYAEIEFNKVFSYLNNHLNNKKFLVEDRLTGADFMLGFVVKGALNLLKSSGAFPHIESYITNIENQISYKRALDIDANEGHHHHHH	soluble
GPGSMAVNILKAGFPVSVWNRTASKCDDLVAAGATACATPAELAAASDVVFTNLSDSPDVMEVVFGPNGVAAGICEGAIFVDNSTIKPSVAQEIARRLWKEKKVRALDAPVSGGDIGARNGTLTVMVGGDAAALATVLPVLLAVGKKVTHIGDCGAGQVCKAANQIMVAAQMVALGEILVFCEKCGVSGPTVIEAIKSGSAQCWTLDVKPDRLFAGNRAPGFKAALQSKDMGIVMDTAKEFGVPLPSTAVNTQLFQAMVQNGDGDRDNSAVVSVLERMANVHISEAERE	not soluble
VAFLCQLFGVYRSSYQAWHHRVKKPDTERIRLKSLVREAFNEGKGSAGARTIAAMVTAKGIPLGRWRAGKLMAELGLVSRQQPKHRYSHQEQEHLDIPNDLDRQFTVTEPNQVWCGDVTYIWTGKCWAYLAVVLDLFARKPIGWAMSFSADSELTKRALEMAFESRRKPQGVMFHRDQGSHYTRKAFRRLLWRYGIKQSLSRRGNCWDNSPMERFFRSLKSEWVPEEGYSDFRKAFRSITNYIQGEPRQSRDFPYVFITFLYPASIRRANGAGAG	soluble
MSLNRYSVHPEQVKRFTTEELRSHFLMDSLFTENKLTMYYSHEDRVVIGGAAPGQSELKLDAGDFLKTDFFLERREIGIINVGQPGAVRVGDDEYVLQTKDFLYIGMGNQDVSFSSLNGEKAKFYFVSACAHKSYPTQKAALSELTPDRLGDDAASNVRSLYKVIHQDGIKSCQLMMGITMLDQNNNWNTMPAHVHDRRMEAYLYLDLEKDSKVFHFMGQPDETRHLVVGNEQAVLSPAWSIHSGAGTSNYSFVWAMAGENYTFTDMDLIPMDGLKEGHHHHHH	soluble
MSLEQDKYLTVAAITKYIEKKFEVDPYMKQVFVRGEISNLKQPASGHLYFTVKDEFAMLRSVMFHKAVQKIGFVPEDGMNVLVTGRIGVFTKAGRYQFYAEHMEPDGVGALYIQLEQLKAQLEKEGLFAETHKKVLPSFPSKVAVVTSKTGAAVRDILTTIHRRMPSVEVIVYPTIVQGEKAAQKIVENIGKINQRNDIDVMIIGRGGGSLEELWAFNEEPVVRAVYDSDVPVISAVGHETDFALSDFSADVRAATPTAAAELAVPDYRDLEERLAERKYRLLAVTRQALERKERSLEQLKQHLILNGPKHQLEQQMERTDYFSERLNNAFSKQIFVKQTAFDRLNDRLHYYHPNKEIELQKEQMTLHLQALDKAMKQLLKDKQQSFFRQVDALEHLSPLSLLKRGFGVTYKENTLVKSVQELEVGDNIQVKMQGGHIDALITAKEEDISGNEGHHHHHH	soluble
MGSDKIHHHHHHMGYAMRLALIDGEHYPDVNRWALEKLKVDCAVFVGGMEKIGSIRDVERTLSIKLYYDEDIFKALERAIEENEIREVIDLSDEPVLTPEIRFRIASFLLKRGITYIGADFEFKPKEWIKIDVPSINIIGTGKRIGKTAIGGFVGRTLKEEYKVVIVTMGRGGPESPEVIRGDLMEITPEFLVEVSEKGRHAASDHFEDALTAGVATVGCRRCGGGLAGFTFLDVLQKGIEVAKSLNPEIIVFEGSGASFANVLSEGFITVVSALQGKEIKMYLYPLRISLGDLIVVTMADEVKDPGKISSLIKEINPDADIHLTRFSPRLIGNVEGKAVVVTTSTNSAKRVTKELEDRGIDVVGFSGNLANRVKLREELKKVSYDTLIVELKAGAVDVAIKSALRSGKRIVFLDYEPKNIDDKDLRESVKELARRIVNDKGHRKGR	not soluble
MAHHHHHHMFRDGYSLDSVCHRLRYEIGVPHDGVYLHEPPGGSFAAVTQFGVAVGVTREQLPHASRHYNVHALIFDDRGYHALDELPRLSVAPQAYLHRILLRCVSGDEAAVAQRLRHLSSNGFINYFGLESFGIGSNTLFDMAAFAFRREPHRSVGAYLQTLAECSPLHHQPYLSYANAEESTVAGAVAEWLRVCERAKLPRETRELLRKLHCYHLSQCHPSDATTISMEDVWKACPIMHRAEQSAAAFVWNAMASQRLLSFGSRPVKGDLVCRIGNRGAIEIAEVASDTDASHYTIDDVVLPIPCGGTPAAELRYPTHSVNEAFFTQFAKKHSLSFLFNSGVDPTPRAAATLGPYRRLVSRPRNLQAAVLQDPSSCAALKSDLFLLQEHQPTEGWSLDYRQRVREPSNFNVSERFRERMSCIRKRRAGEHSVALAFVLPAGSSPWVALREAFHMHYGTFHDFYGVS	not soluble
KIGKHTIKFPIFQGGMGVGISWDELAGNVAKEGALGVISAVGTGYYKNMRFVERIVAKKPFEALNFYSKKALNEIFANARKICGNNPLGANILYAINDYGRVLRDSCEAGANIIITGAGLPTNMPEFAKDFSDVALIPIISSAKALKILCKRWSDRYKRIPDAFIVEGPLSGGHQGFKYEDCFKEEFRLENLVPKVVEASKEWGNIPIIAAGGIWDRKDIDTMLSLGASGVQMATRFLGTKECDAKVYADLLPTLKKEDILLIKSPVGYPARAINTGVIKRIEEGNAPKIACVSNCVAPCNRGEEAKKVGYCIADGLGRSYLGNREEGLYFTGANGYRVDKIISVHELIK	not soluble
MVQESTMICVDNSEYMRNGDFQPTRLQSQQDAVNLVTQCKLRANPENAVGILSMANSVQVLSSLSTEQGRLMMKNHSIEPFGKCNFIAGIKIAHLALKHRQNRNHKMRVVLFIGSPLEEIEMNELVKIAKKMKKEKVLCDVIMFGENESDGHEKFSTFVDTLNGKEGSGSSLIVVPQGSSLTDALLQSSVCKNEDGQAAFGGGGNGMDNAFGMDVENDPDLALALRVSMEEERARQAAAAAANGGAADSGADAEVAAAAAAVPLEEMDMGAMTEEQQLEWALRLSMQENAPAEQPQVQHEQMDVDGAPAVGGDNLDDLMNNPELLQQIVDDLPAANAEKDDDKEKK	not soluble
SGPLRDKVVIFIYWRENDLSIYLDLSGEPISRHGYRLNPWKAPMAETLAAGVIITSEWNPTTPFINPMCGSGTLAIEAALIGTHKIPGLVREDYAFQHIHGYVAETWKTMREMAQQKVLPALPFKIIASDHDQRALDAAKVNAEKAGVDHLIDFVLSDFQDTPVEENQAGVVILNPEYGERLGDEESLVLTYKEIGDFFKQKCGGYKGFVFTGNLELAKRIGLKPKRKIKFFSAKIECRLMQYELYSGTKRVVFKTE	not soluble
MGSDKIHHHHHHMNIAEIEVTHKVKEKEWKEFLSRSEYATVYHTPEWKKTLEESFGYKPYYLFVKDESDLIVGMLPLFYVKSKLTGNRLSSLPFSHISGPVGDKATKNFLISEAINLYKNLGASYLEIRDRVEDNRFLSKNMFSTYILELNPNIEEVWKQLHKGSVRRAIKKSEKSGVVVDTAKDIESLKEFYDLNCVGKRKIGVPCHPWKFFKNLFRFMNDYISLYVAKYQNNIIGGGIMIYYKDTVIYGYGAAHPHYLKLYPYNAFLWKSIKDACLSRYKYFDLGRAHYNVERGLMDFKRRWGTIEKKLYYSYYSKNKDLKILDMSGLKYRLGTKVIRKMPMPIYKKFSDRIFGSLG	not soluble
MRPEDEALIVACIPSLRRYARGLTGERDRADDLVQDTLERAWSRFSRWQRRGELRAWMFGIMHNQFIDGLRAQKRQADYGAETEIPELPVRATQADRLEVRDLDRHLQRLPADLRAVLLLVAVEEFTYREAAQVLEVPIGTVMSRLSRARERLAALLQVQAEAPAASTVQRIRAT	not soluble
